Source: US20240382610A1 (TALLAC THERAPEUTICS, published 2024)
Positions count from the first letter of the chain named.

T1: Human nectin-4 ECD-6His (TNT-175) (human, UniProt Q96NY8 32-349)
T1 construct: the entry holds the extracellular domain with the C-terminal 6His tag
T1 sequence: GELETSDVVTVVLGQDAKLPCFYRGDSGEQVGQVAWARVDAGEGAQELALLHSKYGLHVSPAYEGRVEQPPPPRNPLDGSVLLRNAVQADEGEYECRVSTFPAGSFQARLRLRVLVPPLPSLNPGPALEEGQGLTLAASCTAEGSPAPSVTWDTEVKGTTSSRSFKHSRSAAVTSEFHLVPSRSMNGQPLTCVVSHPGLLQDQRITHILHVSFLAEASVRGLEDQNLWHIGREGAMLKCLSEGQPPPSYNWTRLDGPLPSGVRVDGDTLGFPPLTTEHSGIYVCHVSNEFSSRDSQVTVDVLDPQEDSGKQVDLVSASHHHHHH

T2: Cyno nectin-4 ECD-6His (TNT-255) (cynomolgus, UniProt Q96NY8 32-349 (human entry))
T2 construct: entry includes the 6His tag
T2 chain: T1 sequence with V39A, I230V

T3: Human nectin-4-IgV-6His (TNT-252) (human, UniProt Q96NY8 32-147)
T3 construct: entry includes the 6His tag
T3 sequence: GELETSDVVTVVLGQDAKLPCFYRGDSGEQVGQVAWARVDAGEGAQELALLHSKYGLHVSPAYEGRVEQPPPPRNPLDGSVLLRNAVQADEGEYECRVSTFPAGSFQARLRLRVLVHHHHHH

T4: Mouse nectin-4 ECD-6His (TNT-250) (mouse, UniProt Q8R007 31-347)
T4 construct: entry includes the 6His tag; also called mouse nectin-4-LCD
T4 sequence: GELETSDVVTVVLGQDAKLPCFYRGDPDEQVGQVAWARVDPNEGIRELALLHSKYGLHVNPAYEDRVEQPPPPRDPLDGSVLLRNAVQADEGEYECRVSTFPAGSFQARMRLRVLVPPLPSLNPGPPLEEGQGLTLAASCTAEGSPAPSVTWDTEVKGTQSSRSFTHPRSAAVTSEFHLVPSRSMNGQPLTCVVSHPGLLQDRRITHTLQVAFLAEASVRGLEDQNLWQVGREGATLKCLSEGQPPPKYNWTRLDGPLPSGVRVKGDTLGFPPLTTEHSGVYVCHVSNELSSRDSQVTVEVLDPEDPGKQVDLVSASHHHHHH

B1: TNT-336 (antibody, V domains shown)
VH: KVQLVESGGGLVQPGGSLRLSCEASGFTFSNYWMHWVRQVPGEGLVWVSRLNNGGTSTRYADSVKSRFTISRDNAKNTLYLQMNSLRAEDTAVYYCVRDWYFDLWGRGTLVTVSS
VL: QLVLTQSPSASASLGASVKLTCTLSSGHSFYAIAWHQQQPEKGPRYLMQVNSNGSHNKGDGIPDRFSGSSSGAERYLTISSLQSEDEADYYCQSWDTDIWVFGGGTKLTVLG
notes: human IgG1
B2: TNT-332 (antibody, V domains shown)
VH: QVQLVQSGAEAKKPGASVRVSCKTSGYTFTNYYIHWVRQAPGQGLEWMGIINPTLDSTSYAQKFQDRVTMTRDTSTNTDYMDLSSLRFEDTAVYYCARSAGFDAFDIWGQGTMVTVSS
VL: DIQLTQSPSFLSASVGDKVTITCRASQGINSYLAWYQQKPGKAPKLLIYSASTLQGGVPSRFSGSGSGTEFTLTISNLQPADFATYCCQQLNSYPFTFGPGTKVDIKR
notes: human IgG1
B3: TNT-333 (antibody, V domains shown)
VH: QVQLQESGPGLVKPSETLSLTCTISGGSISSYYWSWIRQPPGKGLEWIGYIFYIGNTNYYPSLKSRVTISVDASKNQFSLKLSSVTAADTAVYYCARSYPYWYFDLWGRGTLVTVSS
VL: QSVLTQPPSVSAAPGQKVTISCSGSSSNIGNNYVSWYQQLPGTAPKLLISDNNKRPSGIPDRFSGSKSGTSATLGITGLQTGDEADYYCGTWDSSLSAGVVFGGGTKLTVLG
notes: human IgG1
B4: TNT-335 (antibody, V domains shown)
VH: QVQLQESGPGLVKPSETLSLTCTVSGGSISSYYWSWIRQPPGKGLEWIGYIHYSGISNYNPSLKSRVAISLDTSNNHFSLKLTSLTAADTAVYFCARGSYWFDPWGQGTLVTVSS
VL: QSVLTQPPSASGTPGQRVTISCSGSSSNIGSDYIYWYQQLPGTAPKLLIYSNHQRPSGVPDRFSGSKSGTSASLAISGLRSEDEADYYCAAWEDSLSGPIFGGGTKLTVLG
notes: human IgG1
B5: TNT-337 (antibody, V domains shown)
VH: EVQLVESGGGLVQPGGSLRLSCAASGFTFSNYDMSWVRQAPGKGLEWVATISSGGSYTYYVDSVKGRFTISRDNAKNSLYLQMNSLRAEDTAVYYCARQELGSYYAMDYWGQGTTVTVSS
VL: DIVMTQTPLSLPVTPGEPASISCRSSQSIVHSNANTYLEWYLQKPGQSPQLLIYKVSNRFSGVPDRFSGSGSGTDFTLKISRVEAEDVGVYYCFQGSHVPYTFGGGTKVEIKR
notes: human IgG1
B6: TNT-334 (antibody, V domains shown)
VH: EVQLVESGGGLVQPGGSLRLSCAASGFTFSRYWMHWVRQAPGKGLVWVSRINSDGSSSNYADSVKGRFTFSRDNAKNTLYLQMNSLRAEDTAVYFCVRDNWYFDYWGQGTLVTVSS
VL: EIVMTQSPATLPVSPGERATLSCRASQSVSINLAWYQQKPGQAPRLLIYGVSTRATGIPARFSGSGSGTEFTLTISGLQSEDFAVYYCQQYNNWPRTFGQGTKVEIKR
notes: human IgG1

Each binder was assayed against T1, Human nectin-4 ECD-6His (TNT-175) (assay: SPR Biacore 8K, mAb on protein A).
Method: (§1) The running buffer was 10 mM HEPES, pH 7.4, 150 mM NaCl, 3 mM EDTA, 0.05% (v/v) Surfactant P20 (HBS-EP+). […] The nectin-4 analytes were injected in either single-cycle kinetics or multi-cycle kinetics mode at nominal starting concentrations of 300 nM or 900 nM with 3-fold serial dilutions. Association times were monitored for 120 s, and dissociation times were monitored 1800 s at 30 μL/min flow rate. The surfaces were regenerated with 10 mM glycine at pH1.7 or 75 mM phosphoric acid at pH1.6 for two pulses of 15 s at 30 μL/min flow rate.
(§2) The data were processed and analyzed with Biacore 8K Evaluation Software Version 3.0.12.15655 (Cytiva, Global Life Sciences Solutions USA LLC, Marlborough, MA). […] The responses from the nearest buffer blank injection were then subtracted from the reference subtracted data (2-1) to yield double-referenced data. These double-reference data were fit to a simple 1:1 Langmuir binding model with mass transport to determine the apparent association (ka) and dissociation rate constants (kd). The apparent equilibrium dissociation constant or affinity constant was then calculated based on their ratio as (KD=kd/ka).
B1 was tested, and the Kd was 111 nM. B2 gave a Kd of 7.6 nM. Work on B3 yielded a Kd of 6.18 nM. B4 was tested, and the Kd was 1.83 nM. B5 gave a Kd of 217 nM. B6 was tested, and the Kd was 71.5 nM.

Biological target: T2, Cyno nectin-4 ECD-6His (TNT-255)
Assay: SPR Biacore 8K, mAb on protein A
Method: as §1, §2
B1: no binding (tested: up to 300 or 900 nM analyte). B2 gave a Kd of 7.2 nM. For B3, the Kd was 7.43 nM. B4 showed a Kd of 1.28 nM. B5 showed a Kd of 286 nM. For B6, the Kd was 95.3 nM.

These binders were tested against T3, Human nectin-4-IgV-6His (TNT-252) (assay: SPR Biacore 8K, mAb on protein A).
Method: as §1, §2
With B1 the Kd was 104 nM. B2: no binding (tested: up to 300 or 900 nM analyte). B3: no binding (tested: up to 300 or 900 nM analyte). Binder B4 has a Kd of 0.985 nM. In the case of B5, the Kd is reported as 195 nM. B6 was tested, and the Kd was 46.3 nM.

What follows are binders tested against T4, Mouse nectin-4 ECD-6His (TNT-250) (assay: SPR Biacore 8K, mAb on protein A).
Method: as §1, §2
B1: no binding (tested: up to 300 or 900 nM analyte). B2: no binding (tested: up to 300 or 900 nM analyte). B3: no binding (tested: up to 300 or 900 nM analyte). B4: no binding (tested: up to 300 or 900 nM analyte). Binder B5 has a Kd of 318 nM. B6: no binding (tested: up to 300 or 900 nM analyte).
